Reference: FireProtDB (doi:10.1038/nsb0996-782)

Details: Escherichia coli (strain K12); pH 5.1; 25 °C; GdnHCl; NMR; Sodium acetate 100mM; whole UniProt chain shown

B1: Ribonuclease HI wild type, P0A7Y4 (protein)
chain: MLKQVEIFTDGSCLGNPGPGGYGAILRYRGREKTFSAGYTRTTNNRMELMAAIVALEALKEHCEVILSTDSQYVRQGITQWIHNWKKRGWKTADKKPVKNVDLWQRLDAALGQHQIKWEWVKGHAGHPENERCDELARAAAMNPTLEDTGYQVEV
unfolding free energy: 10.5 kcal/mol
